Results: the supplement of paper PMC7877785
± gives the uncertainty stated by the source.

Assay: self-splicing fitness, log relative to wild type (ln ratio); higher = more splicing; Tetrahymena group I intron in knt gene, E. coli kanamycin selection, DiMSum; sequences stand for … in CUCUCU…GGAGGGAAAAGUUAUCAGGCAUGCACCUGGUAGCUAGUCUUUAAACCAAUAGAUUGCAUCGGUUUAAAAGGCAAGACCGUCAAAUUGCGGGAAAGGGGUCAACAGCCGUUCAGUACCAAGUCUCAGGGGAAACUUUGAGAUGGCCUUGCAAAGGGUAUGGUAAUAAGCUGACGGACAUGGUCCUAACCACGCAGCCAAGUCCUAAGUCAACAGAUCUUCUGUUGAUAUGGAUGCAGUUCACAGACUAAAUGUCGGUCGGGGAAGAUGUAUUCUUCUCAUAAGAUAUAGUCGGACCUCUCCUUAAUGGGAGCUAGCGGAUGAAGUGAUGCAACACUGGAGCCGCUGGGAACUAAUUUGUAUGCGAAAGUAUAUUGAUUAGUUUUGGAGUACUCGUGGUCG
Procedure, shortened: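 Six replicate transformations of E. coli BL21(DE3) with a pET-22b(+) library were grown overnight at 37°C or 30°C. The library randomised all eight P1ex-region intron nucleotides, the intron lying in the knt kanamycin-resistance gene, and plates were LB agar with or without 25 μg/mL kanamycin plus 100 μg/mL carbenicillin, 50 μM IPTG and 0.2% rhamnose. Pooled colonies were amplicon-sequenced on an Illumina HiSeq 2500, and fitness is the DiMSum error-weighted combination of wild-type-normalised replicate fold changes, kanamycin versus none.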

Row | Sequence | self-splicing fitness (ln) (30 °C) | self-splicing fitness (ln) (37 °C)
1 | CCAGAGCAAUAUUACGACUA | -2.95 ± 0.28 | -2.47 ± 0.38
2 | CCAGAGCAAUAUUACGAGCC |  | -1.84 ± 0.42
3 | CCAGAGCAAUAUUACGAGGC | -2.82 ± 0.38 | -1.34 ± 0.41
4 | CCAGAGCAAUAUUACGAGUA | -2.97 ± 0.23 | -3.39 ± 0.28
5 | CCAGAGCAAUAUUACGAUAC | -2.7 ± 0.2 | -1.71 ± 0.21
6 | CCAGAGCAAUAUUACGAUGA | -1.88 ± 0.14 | -0.518 ± 0.11
7 | CCAGAGCAAUAUUACGCACG | -2.06 ± 0.22 | 0.34 ± 0.17
8 | CCAGAGCAAUAUUACGCUGC | -2.85 ± 0.27 | -1.28 ± 0.25
9 | CCAGAGCAAUAUUACGCUUA | -3.34 ± 0.43 | 
10 | CCAGAGCAAUAUUACGGAUU | -3.05 ± 0.15 | -2.38 ± 0.16
11 | CCAGAGCAAUAUUACGGCUC | -2.69 ± 0.23 | -2.76 ± 0.26
12 | CCAGAGCAAUAUUACGUAAU | -3.66 ± 0.23 | -3.18 ± 0.3
13 | CCAGAGCAAUAUUACGUACG | -1.46 ± 0.12 | -0.669 ± 0.13
14 | CCAGAGCAAUAUUACGUAGG | -3.25 ± 0.19 | -2.6 ± 0.25
15 | CCAGAGCAAUAUUACGUGUC | -2.88 ± 0.21 | -2.29 ± 0.32
16 | CCAGAGCAAUAUUACGUUUA | -3.95 ± 0.29 | -1.78 ± 0.2
17 | CCAUAGCAAUAUUACGAAAU | -2.98 ± 0.37 | 
18 | CCAUAGCAAUAUUACGAAGA | -3.41 ± 0.29 | -2.91 ± 0.34
19 | CCAUAGCAAUAUUACGACUC | -3.37 ± 0.32 | -2.18 ± 0.28
20 | CCAUAGCAAUAUUACGAGUC | -4.04 ± 0.19 | -2.89 ± 0.21
21 | CCAUAGCAAUAUUACGAGUG | -1.44 ± 0.092 | -0.172 ± 0.097
22 | CCAUAGCAAUAUUACGCAGA | -2.96 ± 0.21 | -2.16 ± 0.24
23 | CCAUAGCAAUAUUACGCCGA | -1.4 ± 0.26 | -1.57 ± 0.42
24 | CCAUAGCAAUAUUACGCCUA | -2.85 ± 0.27 | -2.93 ± 0.35
25 | CCAUAGCAAUAUUACGCGUU | -3.53 ± 0.23 | -2.51 ± 0.24
26 | CCAUAGCAAUAUUACGCUGG | -3.54 ± 0.19 | -2.58 ± 0.2

Row | Sequence | self-splicing fitness (ln) (30 °C) | self-splicing fitness (ln) (37 °C)
27 | CCAUAGCAAUAUUACGGAUC | -1.97 ± 0.41 | -1.72 ± 0.32
28 | CCAUAGCAAUAUUACGGAUG | -2.42 ± 0.11 | -1.43 ± 0.11
29 | CCAUAGCAAUAUUACGGCAC |  | -1.84 ± 0.28
30 | CCAUAGCAAUAUUACGGCAG | -2.02 ± 0.14 | -1.34 ± 0.17
31 | CCAUAGCAAUAUUACGGCCU | -3.71 ± 0.37 | 
32 | CCAUAGCAAUAUUACGGCUA | -2.48 ± 0.25 | -1.89 ± 0.28
33 | CCAUAGCAAUAUUACGGUGC | -3.09 ± 0.17 | -2.61 ± 0.25
34 | CCAUAGCAAUAUUACGUAAA | -4.17 ± 0.2 | -3.03 ± 0.32
35 | CCAUAGCAAUAUUACGUCCA | -1.27 ± 0.18 | -1.85 ± 0.33
36 | CCAUAGCAAUAUUACGUCCG | -0.229 ± 0.077 | 0.347 ± 0.13
37 | CCAUAGCAAUAUUACGUCUG | -1.4 ± 0.075 | -0.687 ± 0.07
38 | CCAUAGCAAUAUUACGUGGA | -2.2 ± 0.14 | -2.16 ± 0.18
39 | CCAUAGCAAUAUUACGUGGU | -4 ± 0.23 | -1.73 ± 0.13
40 | CCAUAGCAAUAUUACGUUUC | -3.12 ± 0.15 | -0.309 ± 0.2
41 | CCAUAGCAAUAUUACGUUUG | -1.68 ± 0.1 | -0.897 ± 0.1
42 | CCCAAGCAAUAUUACGAAGA | -3.32 ± 0.2 | -2.59 ± 0.2
43 | CCCAAGCAAUAUUACGAAUU | -3.33 ± 0.12 | -2.87 ± 0.15
44 | CCCAAGCAAUAUUACGACAA | -3.14 ± 0.17 | -3.12 ± 0.22
45 | CCCAAGCAAUAUUACGACCA | -4.66 ± 0.32 | -2.27 ± 0.17
46 | CCCAAGCAAUAUUACGAUGU | -3.53 ± 0.18 | -2.04 ± 0.15
47 | CCCAAGCAAUAUUACGCAUU | -3.82 ± 0.2 | -2.04 ± 0.19
48 | CCCAAGCAAUAUUACGCCGU | -3.66 ± 0.22 | -2.21 ± 0.19
49 | CCCAAGCAAUAUUACGCUAA | -3.05 ± 0.29 | -1.23 ± 0.21
50 | CCCAAGCAAUAUUACGCUCC |  | -1.68 ± 0.42
51 | CCCAAGCAAUAUUACGCUUG | -3.39 ± 0.18 | -1.92 ± 0.17
52 | CCCAAGCAAUAUUACGGACC | -2.96 ± 0.18 | -2.29 ± 0.26

Row | Sequence | self-splicing fitness (ln) (30 °C) | self-splicing fitness (ln) (37 °C)
53 | CCCAAGCAAUAUUACGGAGG | -1.95 ± 0.22 | 
54 | CCCAAGCAAUAUUACGGCUC | -2.28 ± 0.21 | -2.59 ± 0.29
55 | CCCAAGCAAUAUUACGGUCA | -2.13 ± 0.12 | -2.22 ± 0.14
56 | CCCAAGCAAUAUUACGGUGA | -1.27 ± 0.07 | -1.16 ± 0.077
57 | CCCAAGCAAUAUUACGGUUA | -2.28 ± 0.12 | -2.38 ± 0.16
58 | CCCAAGCAAUAUUACGUAAG | -3.05 ± 0.19 | -1.87 ± 0.16
59 | CCCAAGCAAUAUUACGUACA | -2.94 ± 0.16 | -3.39 ± 0.23
60 | CCCAAGCAAUAUUACGUAGU | -3.65 ± 0.2 | -1.93 ± 0.14
61 | CCCAAGCAAUAUUACGUCCA | -1.96 ± 0.14 | -2.45 ± 0.23
62 | CCCAAGCAAUAUUACGUGCG | -4.13 ± 0.21 | -2.28 ± 0.18
63 | CCCAAGCAAUAUUACGUGUU | -4.07 ± 0.18 | -2.46 ± 0.13
64 | CCCAAGCAAUAUUACGUUGG | -3.48 ± 0.14 | -2.28 ± 0.13
65 | CCCAAGCAAUAUUACGUUUA | -3.62 ± 0.14 | -3.04 ± 0.18
66 | CCCCAGCAAUAUUACGAAUU | -3.01 ± 0.23 | -1.59 ± 0.36
67 | CCCCAGCAAUAUUACGAUCU | -3.24 ± 0.13 | -3.06 ± 0.22
68 | CCCCAGCAAUAUUACGCAAG | -3.05 ± 0.14 | -2.28 ± 0.19
69 | CCCCAGCAAUAUUACGCCCC | -2.98 ± 0.38 | 
70 | CCCCAGCAAUAUUACGCCUG | -3.37 ± 0.19 | -2.97 ± 0.27
71 | CCCCAGCAAUAUUACGCGCA | -3.61 ± 0.27 | -1.36 ± 0.21
72 | CCCCAGCAAUAUUACGCUGU | -4 ± 0.21 | -3.09 ± 0.18
73 | CCCCAGCAAUAUUACGCUUU | -4.4 ± 0.25 | -3.36 ± 0.21
74 | CCCCAGCAAUAUUACGGCCA | -3.1 ± 0.2 | -2.16 ± 0.2
75 | CCCCAGCAAUAUUACGGCCU | -3.02 ± 0.29 | -2.82 ± 0.47
76 | CCCCAGCAAUAUUACGGCGU | -2.22 ± 0.073 | -1.81 ± 0.1
77 | CCCCAGCAAUAUUACGGGUC | -2.82 ± 0.11 | -2.43 ± 0.16
